Source: paper PMC4520604, “Affinity Maturation of Monoclonal Antibody 1E11 by Targeted Randomization in CDR3 Regions Optimizes Therapeutic Antibody Targeting of HER2-Positive Gastric Cancer” (PLoS ONE, 2015)

Assays:
Conditions in all cases: both partners purified
HER2-ECD-His protein [1] = target: T1, HER2-ECD-His protein (Homo sapiens, UniProt P04626); assay: SPR; affinity: antibody captured at about 50 RU by goat anti-human IgG (γ) on CM5; HER2-ECD-His injected at 0 to 640 nM; fit to 1:1 (Langmuir) model
T1 construct: human epidermal growth factor receptor 2 (HER2), extracellular region (ECD); The SPR methods name HER2-ECD-His; The ELISA legends say only 'HER2-ECD protein'; also called HER2-ECD protein; extracellular region (ECD) of HER2; source: Freestyle 293 system, secreted, purified (Ni-NTA)

HER2-ECD-His protein [2] = target: T1, HER2-ECD-His protein; assay: SPR; k off analysis of Fab: HER2-ECD-His immobilised on CM5 by amine coupling at about 2,000 RU; Fab injected at 2 μg/mL, 50 μL/minute
HER2-ECD-His protein [3] = target: T1, HER2-ECD-His protein; assay: SPR; k off analysis of IgG: antibody captured at 1 μg/mL by goat anti-human IgG (γ) immobilised on CM5; HER2-ECD-His injected at 160 nM
HER2-ECD-His protein [4] = target: T1, HER2-ECD-His protein; assay: SPR; affinity: antibody captured at about 50 RU by goat anti-human IgG (γ) on CM5; HER2-ECD-His injected at 0 to 640 nM; fit to 1:1 (Langmuir) model; remark: listed apart in the source

B1: chimeric 1E11 (antibody, V domains shown)
VH: EVKLVESGGGLVQPGGSLKLSCAASGFTFSSYTMSWVRQTPEKRLEWVAYISNGGGSTYYPDTVKGRFTISRDNAKNTLYLQMSSLKSEDTAMYYCARHLGGTASFDYWGQGTTVTVSS
VL: DIQMTQSPASQSASLGESVTITCLASQTIGTWLAWYQQKPGKSPQLLIYVATSLADGVPSRFSGSGSGTKFSFKISSLQAEDFVSYYCQQLYSTPWTFGGGTKLELK
notes: VH of murine 1E11; VL of murine 1E11; Chimeric IgG; also called ch1E11; parental ch1E11; source: Freestyle 293 system, purified (protein-A)
Work on B1 yielded a Kd (HER2-ECD-His protein [1]) of 23 nM.

B2: hz1E11 Fab, T99HA mutant (Fab, V domains shown)
VH: EVQLVESGGGLVQPGGSLRLSCAASGFTFSSYTMSWVRQAPGKGLEWVAYISNGGGSTYYPDTVKGRFTISRDNAKNSLYLQMNSLRAEDTAVYYCARHLGGAASFDYWGQGTLVTVSS
VL: DIQMTQSPSSLSASVGDRVTITCLASQTIGTWLAWYQQKPGKAPKLLIYVATSLADGVPSRFSGSGSGTDFTLTISSLQPEDFATYYCQQLYSTPWTFGQGTKVEIK
notes: as the VH of m4 (hz1E11); numbers count on: Kabat; as the VL of m4 (hz1E11); Fab in the vector pComb3X; source: E. coli DH5α, periplasmic extract, purified (IMAC)
In the case of B2, the “fold increase of k off (against the parental Fab)” value (HER2-ECD-His protein [2]) is reported as 32 fold.

B3: L-1A12 + H-1B12 (IgG) (antibody, V domains shown)
VH: EVQLVESGGGLVQPGGSLRLSCAASGFTFSSYTMSWVRQAPGKGLEWVAYISNGGGSTYYPDTVKGRFTISRDNAKNSLYLQMNSLRAEDTAVYYCARNYGGTASFDYWGQGTLVTVSS
VL: DIQMTQSPSSLSASVGDRVTITCLASQTIGTWLAWYQQKPGKAPKLLIYVATSLADGVPSRFSGSGSGTDFTLTISSLQPEDFATYYCQQNAYAPWTFGQGTKVEIK
notes: as the VH of m4 (hz1E11); numbers count on: Kabat; as the VL of m4 (hz1E11); IgG; also called combination of the VH of 1B12 and VL of 1A12; source: Freestyle 293 system, purified (protein-A)
B3 showed a koff (HER2-ECD-His protein [3]) of 1.87e-05 s⁻¹.

B4: L-1F11 + H-1B12 (IgG) (antibody, V domains shown)
VH: EVQLVESGGGLVQPGGSLRLSCAASGFTFSSYTMSWVRQAPGKGLEWVAYISNGGGSTYYPDTVKGRFTISRDNAKNSLYLQMNSLRAEDTAVYYCARNYGGTASFDYWGQGTLVTVSS
VL: DIQMTQSPSSLSASVGDRVTITCLASQTIGTWLAWYQQKPGKAPKLLIYVATSLADGVPSRFSGSGSGTDFTLTISSLQPEDFATYYCQQTAFSPWTFGQGTKVEIK
notes: as the VH of m4 (hz1E11); numbers count on: Kabat; as the VL of m4 (hz1E11); IgG; source: Freestyle 293 system, purified (protein-A)
B4 gave a koff (HER2-ECD-His protein [3]) of 3.45e-05 s⁻¹.

B5: clone 1F11 (IgG) (antibody, V domains shown)
VH: EVQLVESGGGLVQPGGSLRLSCAASGFTFSSYTMSWVRQAPGKGLEWVAYISNGGGSTYYPDTVKGRFTISRDNAKNSLYLQMNSLRAEDTAVYYCARHLGGTASFDYWGQGTLVTVSS
VL: DIQMTQSPSSLSASVGDRVTITCLASQTIGTWLAWYQQKPGKAPKLLIYVATSLADGVPSRFSGSGSGTDFTLTISSLQPEDFATYYCQQTAFSPWTFGQGTKVEIK
notes: as the VH of m4 (hz1E11); CDR-H3 HLGGTASFDY; as the VL of m4 (hz1E11); numbers count on: Kabat; IgG; also called L-1F11; source: Freestyle 293 system, purified (protein-A)
B5 gave a koff (HER2-ECD-His protein [3]) of 5.89e-05 s⁻¹, a Kd (HER2-ECD-His protein [4]) of 1.4 nM and a koff (HER2-ECD-His protein [4]) of 0.00012 s⁻¹. The kon (HER2-ECD-His protein [4]) was 90000 M⁻¹ s⁻¹.

B6: L-1F11 + H-2A7 (IgG) (antibody, V domains shown)
VH: EVQLVESGGGLVQPGGSLRLSCAASGFTFSSYTMSWVRQAPGKGLEWVAYISNGGGSTYYPDTVKGRFTISRDNAKNSLYLQMNSLRAEDTAVYYCARNFGGTASFDYWGQGTLVTVSS
VL: DIQMTQSPSSLSASVGDRVTITCLASQTIGTWLAWYQQKPGKAPKLLIYVATSLADGVPSRFSGSGSGTDFTLTISSLQPEDFATYYCQQTAFSPWTFGQGTKVEIK
notes: as for B4
B6 showed a koff (HER2-ECD-His protein [3]) of 4.5e-05 s⁻¹.

B7: hz1E11 Fab, G97HA mutant (Fab, V domains shown)
VH: EVQLVESGGGLVQPGGSLRLSCAASGFTFSSYTMSWVRQAPGKGLEWVAYISNGGGSTYYPDTVKGRFTISRDNAKNSLYLQMNSLRAEDTAVYYCARHLAGTASFDYWGQGTLVTVSS
VL: DIQMTQSPSSLSASVGDRVTITCLASQTIGTWLAWYQQKPGKAPKLLIYVATSLADGVPSRFSGSGSGTDFTLTISSLQPEDFATYYCQQLYSTPWTFGQGTKVEIK
notes: as the VH of m4 (hz1E11); numbers count on: Kabat; as the VL of m4 (hz1E11); Fab in the vector pComb3X; also called G97A; source: E. coli DH5α, periplasmic extract, purified (IMAC)
In the case of B7, the “fold increase of k off (against the parental Fab)” value (HER2-ECD-His protein [2]) is reported as 17 fold.

B8: L-1A12 + H-2A7 (IgG) (antibody, V domains shown)
VH: EVQLVESGGGLVQPGGSLRLSCAASGFTFSSYTMSWVRQAPGKGLEWVAYISNGGGSTYYPDTVKGRFTISRDNAKNSLYLQMNSLRAEDTAVYYCARNFGGTASFDYWGQGTLVTVSS
VL: DIQMTQSPSSLSASVGDRVTITCLASQTIGTWLAWYQQKPGKAPKLLIYVATSLADGVPSRFSGSGSGTDFTLTISSLQPEDFATYYCQQNAYAPWTFGQGTKVEIK
notes: as for B4
Binder B8 has a koff (HER2-ECD-His protein [3]) of 2.59e-05 s⁻¹.

B9: clone 1A12 (IgG) (antibody, V domains shown)
VH: EVQLVESGGGLVQPGGSLRLSCAASGFTFSSYTMSWVRQAPGKGLEWVAYISNGGGSTYYPDTVKGRFTISRDNAKNSLYLQMNSLRAEDTAVYYCARHLGGTASFDYWGQGTLVTVSS
VL: DIQMTQSPSSLSASVGDRVTITCLASQTIGTWLAWYQQKPGKAPKLLIYVATSLADGVPSRFSGSGSGTDFTLTISSLQPEDFATYYCQQNAYAPWTFGQGTKVEIK
notes: as the VH of m4 (hz1E11); CDR-H3 HLGGTASFDY; as the VL of m4 (hz1E11); numbers count on: Kabat; IgG; also called L-1A12; source: Freestyle 293 system, purified (protein-A)
In the case of B9, the koff (HER2-ECD-His protein [3]) is reported as 2.8e-05 s⁻¹, the Kd (HER2-ECD-His protein [4]) is reported as 1.9 nM and the koff (HER2-ECD-His protein [4]) is reported as 0.00012 s⁻¹. For the same binder, the kon (HER2-ECD-His protein [4]) was 64000 M⁻¹ s⁻¹.
